Results on 10 molecules are retold here after patent US20210130455A1 (KEIO UNIVERSITY, published 2021).

The target in experiment [1] is T1, human AQP3 on the cell surface (HaCaT cells, A431 cells, HEK293 cells stably overexpressing human AQP3) (human, UniProt Q92482 1-292).
T1 construct: whole, on cells; Membrane water channel; also called human aquaporin 3
T1 sequence (looked up): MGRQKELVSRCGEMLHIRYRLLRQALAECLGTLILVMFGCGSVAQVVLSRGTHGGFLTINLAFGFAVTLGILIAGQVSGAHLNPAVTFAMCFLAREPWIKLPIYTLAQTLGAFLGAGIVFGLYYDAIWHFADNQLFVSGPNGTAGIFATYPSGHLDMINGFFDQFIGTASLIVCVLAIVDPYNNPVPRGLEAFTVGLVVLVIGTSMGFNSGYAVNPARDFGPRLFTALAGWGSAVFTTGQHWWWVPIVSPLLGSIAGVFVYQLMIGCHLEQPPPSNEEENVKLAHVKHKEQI
Nature of the experiment: fluorescence of a labelled secondary antibody on HaCaT cells; antibody at 10 µg/mL. The procedure: (§1) PAM212 and macrophage cells were reacted with each anti AQP3 antibody (0.1, 1, or 10 μg/mL) at 4° C. for 1 hour. After washing the cells, a fluorescent-labeled anti mouse secondary antibody was added and the reaction was allowed to occur additionally for 1 hour (4° C.). By measuring the fluorescence intensity, the binding property of each anti AQP3 antibody to cells was obtained.
The assay was also performed using HaCaT cells and antibodies A, B, C, D, E, F, G, H, and J at a concentration of 10 μg/mL. Binding of antibodies C, D, E, H, and J to HaCaT cells was statistically significant. The results obtained by performing a FACS assay using HaCaT, which are human epithelial cells, and antibody G, antibody H, or antibody J are shown in FIG. 6A-6C, respectively. HaCaT cells were treated with Cell Dissociation Buffer for 30 minutes at 37° C., and then dislodged and collected. Then, the cells were reacted with 10 μg/mL anti AQP3 antibody at 4° C. for 1 hour. After washing the cells, a fluorescent-labeled anti mouse secondary antibody was added and the reaction was allowed to occur additionally for 1 hour (4° C.). Then, by using a flow cytometer, fluorescence intensity was measured (FIG. 6A to FIG. 6C). FIG. 6A represents the result of a case in which antibody G was used, FIG. 6B represents the result of a case in which antibody H was used, and FIG. 6C represents the result of a case in which antibody J was used. […] The histogram expressed with bold line represents a case in which the anti AQP3 antibody was used while the histogram expressed with thin gray line represents a case as a control in which the anti AQP3 antibody was not used (addition of non-specific IgG). […] Ratio (%) of the cells included in this range (=cells showing positive staining by anti AQP3 antibody) is also shown in the drawing.

The target of experiment [2] is T2, mouse AQP3 on the cell surface (PAM212 cells, mouse macrophage cells, HEK293 cells stably overexpressing … (mouse, UniProt Q8R2N1 1-292)).
T2 construct: whole, on cells; Membrane water channel; also called mouse aquaporin 3
T2 sequence (looked up): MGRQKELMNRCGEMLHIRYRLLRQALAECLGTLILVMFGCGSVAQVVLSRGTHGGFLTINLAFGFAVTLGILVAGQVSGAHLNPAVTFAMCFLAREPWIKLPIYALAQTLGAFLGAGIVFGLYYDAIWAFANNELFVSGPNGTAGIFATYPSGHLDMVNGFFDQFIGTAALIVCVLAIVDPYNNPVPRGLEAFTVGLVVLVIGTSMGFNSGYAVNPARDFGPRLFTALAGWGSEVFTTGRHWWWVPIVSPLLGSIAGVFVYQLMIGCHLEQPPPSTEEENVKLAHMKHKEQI
Put plainly: fluorescence of a labelled secondary antibody on PAM212 cells; antibody at 10 µg/mL. Here is the method: as §1
The assay was also performed using PAM212 cells and antibodies A, B, C, D, E, F, G, H, and J at a concentration of 10 μg/mL. Binding of antibodies C, D, E, G, and J to PAM212 cells was statistically significant.

In experiment [3] the target is T3, mouse AQP3 in cell lysate of HEK293T cells overexpressing mouse AQP3 and a myc-biotinylated tag (mouse, UniProt Q8R2N1 1-292, biotinylated tag (site not given)).
T3 construct: also called AQP3 (cell lysate); not shown: myc-biotinylated tag
T3 sequence (looked up): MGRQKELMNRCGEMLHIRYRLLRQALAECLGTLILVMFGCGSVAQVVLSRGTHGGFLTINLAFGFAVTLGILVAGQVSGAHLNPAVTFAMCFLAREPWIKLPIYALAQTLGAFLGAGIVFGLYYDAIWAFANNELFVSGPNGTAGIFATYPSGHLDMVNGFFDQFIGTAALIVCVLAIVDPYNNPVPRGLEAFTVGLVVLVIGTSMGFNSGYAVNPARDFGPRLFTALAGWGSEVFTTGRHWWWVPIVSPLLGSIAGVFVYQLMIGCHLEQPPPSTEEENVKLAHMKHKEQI
Put plainly: ELISA on lysate of HEK293T cells overexpressing mouse AQP3 and a myc-biotinylated tag. From the text:
Cell lysate from HEK293T cells overexpressing mouse AQP3 and a myc-biotinylated tag was used in an ELISA assay to measure the binding of antibodies A, B, C, D, E, F, G, H, J, and K to AQP3. Cell lysate from HEK293T cells overexpressing the myc-biotinylated tag but not AQP3 was used as control.

Experiment [4] concerns the target T4, peptide used for immunization (SEQ ID NO:1), ATYPSGHLDM (human and mouse (identical sequence)).
T4 construct: Synthetic peptide; also called immunogen peptide; synthetic peptide
T4 peptide: ATYPSGHLDM
Put plainly: ELISA on the immunogen peptide SEQ ID NO:1. The procedure: Binding of antibodies A, B, C, D, E, F, G, H, J, and K to the peptide used for immunization (SEQ ID NO:1) was tested in an ELISA assay. […] Thus, antibodies A, D, and F may therefore bind to AQP3 at a different epitope.
In general terms: ELISA stands for enzyme-linked immunosorbent assay.

Experiment [5] deals with T1, human AQP3 on the cell surface (HaCaT …). Nature of the experiment: flow cytometry on HaCaT cells; antibody at 10 µg/mL. The procedure:
The assay was also performed using HaCaT cells and antibodies A, B, C, D, E, F, G, H, and J at a concentration of 10 μg/mL. Binding of antibodies C, D, E, H, and J to HaCaT cells was statistically significant. The results obtained by performing a FACS assay using HaCaT, which are human epithelial cells, and antibody G, antibody H, or antibody J are shown in FIG. 6A-6C, respectively. HaCaT cells were treated with Cell Dissociation Buffer for 30 minutes at 37° C., and then dislodged and collected. Then, the cells were reacted with 10 μg/mL anti AQP3 antibody at 4° C. for 1 hour. After washing the cells, a fluorescent-labeled anti mouse secondary antibody was added and the reaction was allowed to occur additionally for 1 hour (4° C.). Then, by using a flow cytometer, fluorescence intensity was measured (FIG. 6A to FIG. 6C). FIG. 6A represents the result of a case in which antibody G was used, FIG. 6B represents the result of a case in which antibody H was used, and FIG. 6C represents the result of a case in which antibody J was used. […] The histogram expressed with bold line represents a case in which the anti AQP3 antibody was used while the histogram expressed with thin gray line represents a case as a control in which the anti AQP3 antibody was not used (addition of non-specific IgG). […]
(A flow cytometer gives signals particle by particle.)

The target of experiment [6] is T2, mouse AQP3 on the cell surface (PAM212 …). Put plainly: fluorescence of a labelled secondary antibody on mouse macrophage cells; antibody at 0.1, 1 and 10 µg/mL. Here is the method:
as §1
The testing was also carried out using solvent (Veh) or a non-specific IgG (IgG) controls. In FIG. 4, the vertical axis represents fluorescence intensity, and the mean fluorescence intensity of each sample is represented by bar height together with standard error.

The target is the same in experiment [7]. Put plainly: FACS on HEK293 cells stably overexpressing mouse AQP3; antibody at 10 µg/mL. The procedure: A FACS assay was also performed using HEK293 cells stably overexpressing mouse AQP3. Cells were incubated with antibody E, H, J, or negative control IgG at a concentration of 10 μg/mL for one hour and then sorted by FACS. Separately, HEK293 cells stably overexpressing human AQP3 were incubated with antibody E at a concentration of 10 μg/mL for one hour and then sorted by FACS.

B1: antibody D (antibody, mouse IgG2a, kappa, V domains shown)
VH: EVQLQQSGAELVRPGASVTLSCKASGYTFTDYEMHWVQQTPVHGLEWIGGIDPETGGTGYNQKFKGKAILTADKSSSTAYMELRSLTSEDSAVYFCTRHGSYAMDYWGQGTSVTVSS
VL: DIVMTQSPKFMSTSVGDRVSITCKASQDVSTAVAWYQQKPGQSPKLLIYWASTRHTGVPDRFTGSGSGTDYTLTISSVQAEDLALYYCQQHYSTPPTFGGGTRLEIKR
notes: also called anti AQP3 mAb D
In the case of B1, the binding result in experiment [1], in experiment [2] and in experiment [3] was “binds” each time.

B2: antibody A (antibody, mouse IgG2a, kappa, V domains shown)
VH: QVQLQQPGAELVRPGASVTLSCKASGYTFTDYEMHWVKQTPVHGLEWIGGVDPETGGTGYNQKFRGKAILTADKSSSTAYMELRSLTSEDSAVYYCARHGGSFYAMDYWGQGTSVTVSS
VL: DIVMTQSPKFMSTSVGDRVSITCKASQDVSTAVAWYQQKPGQSPKLLIYWASTRHTGVPDRFTGSGSGTDYTLTISSVQAEDLALYYCQQHYSTPPTFGGGTKLELKR
notes: also called anti AQP3 mAb A
As for B2, the binding result in experiment [3] is listed as “binds”.

B3: antibody G (antibody, mouse IgG2a, kappa, V domains shown)
VH: QVQLKQSGAELVRPGASVTLSCKASGYTFTDYEMHWVKQTPVHGLEWIGGIDPETGGTAYNQKFKGKAILTADKSSSTAYMELRSLTSEDSAVYYCTRWGAITSFVALRGFAYWGQGTLVTVSS
VL: DIQMTQSPSSLSVSAGEKVTMSCKSSQSLLNSGNQKNYLAWYQQKPGQPPKLLIYGASTRESGVPDRFTGSGSGTDFTLTISSVQAEDLAVYYCQNDHSYPPTFGAGTKLELKR
notes: also called anti AQP3 mAb G
For B3, the binding result in experiment [4], in experiment [5], in experiment [2] and in experiment [3] was “binds” throughout.

B4: antibody C (antibody, mouse IgG2a, kappa, V domains shown)
VH: QVQLKQSGAELARPGASVKLSCKASGYNFKSYGISWVKQRTGQGLEWIGEIYPGSGNTYYNEKLKGKATLTADKSSSTAYMELRSLTSEDSAVYFCARTYGYDSFPWFAYWGQGTLVTVSS
VL: DIVMTQAAPSVPVTPGESVSISCRSSKSLLHSNGNTYLYWFLQRPGQSPQLLIYRVSNLASGVPDRFSGSGSGTAFTLRISRVEAEDEGVYYCMQHLEYPFTFGAGTKLEIKR
notes: also called anti AQP3 mAb C
As to B4, the binding result in experiment [4], in experiment [1], in experiment [2] and in experiment [3] was “binds” throughout.

B5: antibody J (antibody, mouse IgG2a, kappa, V domains shown)
VH: QVHLQQSGTELVKPGASVKLSCEASGYTFTSYWMHWVKQRPGQGLEWIGNINPSNGGTNYNEKFKSKATLTVDKSSSTAYMQLSSLTSEDSAVYYCARGGIYYGNYDYYAMDYWGQGTSVTVSS
VL: DIVMTQAAPSVPVTPGESVSISCRSSKSLLHSNGNTYLYWFLQRPGQSPQLLIYRVSNLASGVPDRFSGSGSGTAFTLRISRVEAEDVGVYYCMQHLEYPFTFGGGTKLEIKR
notes: also called anti AQP3 mAb J; Ab
For the molecule B5, the binding result in experiment [4], in experiment [1], in experiment [3] and in experiment [6] was “binds” each time.

B6: antibody E (antibody, mouse IgG2a, kappa, V domains shown)
VH: EVKLLESGAELVRPGASVTLSCKASGYTFTDYEMHWVKQTPVHGLEWIGGIDPESGGTGYNQKFKGKAILTADKSSSTAYMELRSLTSEDSAVYFCTRSGYYGSPLLDYWGQGTTLTVSS
VL: QIVLSQSPAIMSASLGERVTMTCTASSSVSSSYLHWYQQKPGSSPKLWIYSTSNLASGVPARFSGSGSGTSYSLTISSMEAEDAATYYCHQYHRSPPTFGAGTKLEIKR
notes: also called anti AQP3 mAb E
For the molecule B6, the binding result in experiment [4], in experiment [1], in experiment [2] and in experiment [3] was “binds” in each case.

B7: antibody K (antibody, mouse IgG2a, kappa, V domains shown)
VH: QVQLKQSGAELVRPGTSVKVSCKASGYAFTNYLIEWVKQRPGQGLEWIGVINPGSGGTNYNEKFKGKATLTADKSSSTAYMQLSSLTSEDSAVYFCARWGFYYAMDYWGQGTSVTVSS
VL: DIVMTQSPSSLSASLGERVSLTCRASQEISGYLSWLQQKPDGTIKRLIYAASTLDSGVPKRFSGSRSGSDYSLTISSLESEDFADYYCLQYASYPLTFGAGTKLEIKR
notes: also called anti AQP3 mAb K
B7: the binding result in experiment [4] and in experiment [3] was “binds” throughout.

B8: antibody F (antibody, mouse IgG2a, kappa, V domains shown)
VH: QVQLKESGPELVKPGASVKISCKASGYTFTDYYINWVKQRPGQGLEWIGWIFPGSGSTYYNEKFKGKATLTVDKSSSTAYMLLSSLTSEDSAVYFCADYGSSYRYFDVWGAGTTVTVSS
VL: DIVMTQSPAILSASPGEKVTMTCRASSSVSYMHWYQQKPGSSPKPWIYATSYLASGVPARFSGSGSGTSYSLTIGRVEAEDAATYYCQQWSSNPLTFGAGTKLELKR
notes: also called anti AQP3 mAb F
On to B8, for which, in experiment [3], the binding result is on record as “binds”.

B9: antibody B (antibody, mouse IgG2a, kappa, V domains shown)
VH: EVQLVESGGDLVKPGGSLKLSCAASGFTFSSYGMSWVRQTPDKRLEWVATISRGSIYTYYPDSVKGRFTISRDNAKNTLYLQMSSLKSEDTAMYYCARLSLYDYDGARYTMDYWGQGTSVTVSS
VL: DIVMTQSPKFMSTSVGDRVSITCKASQDVGTAVAWYQQKPGQSPKLLIYWASTRHTGVPDRFTGSGSGTDFTLTISNVQSEDLADYFCQQYSSYHTFGAGTKLELKR
notes: also called anti AQP3 mAb B
As to B9, the binding result in experiment [4] and in experiment [3] was “binds” each time.

B10: antibody H (antibody, mouse IgG2a, kappa, V domains shown)
VH: EVKLVESGGDLVKPGGSLKLSCAASGFTFSSYGMSWVRQTPDKRLEWVATISRRSIYTYYPDSVQGRFTISRDNAKNTLYLQMSSLKSEDTAMYYCARLSLYDYDGARYTMDYWGQGTSVTVSS
VL: DIKMTQSPKFMSTSVGDRVSITCKASQDVGTAVAWYQQKPGQSPKLLIYWASTRHTGVPDRFTGSGSGTDFTLTISNVQSEDLADYFCQQYSSYHTFGAGTKLEIKR
notes: also called anti AQP3 mAb H
Regarding B10, the binding result in experiment [4], in experiment [7], in experiment [1] and in experiment [3] was “binds” each time.
